The target in assay [1] is IL-12 receptor on mouse effector cells (mouse) (UniProt Q60837). Briefly: cell-based or functional assay.
Assay [2] deals with IL-12 receptor on human PBMC (human) (UniProt P42701). Briefly: cell-based or functional assay.
In assay [3] the target is KS antigen recognized by the KS-1/4 antibody (plate-coated / as antigen) (UniProt P16422). Briefly: ELISA, plates coated with KS antigen, detection with anti-human IL-12 p40 antibody.
Sequence of KS antigen recognized by the KS-1/4 antibody (plate-coated / as antigen) (P16422 24-265 limits assumed): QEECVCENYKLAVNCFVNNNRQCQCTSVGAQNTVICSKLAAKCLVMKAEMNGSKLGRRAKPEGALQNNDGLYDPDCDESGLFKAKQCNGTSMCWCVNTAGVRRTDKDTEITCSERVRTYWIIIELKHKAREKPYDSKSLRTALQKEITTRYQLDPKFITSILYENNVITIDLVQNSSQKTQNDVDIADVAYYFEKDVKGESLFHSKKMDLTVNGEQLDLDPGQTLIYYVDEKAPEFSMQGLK

Sequence of IL-12 receptor on human PBMC (human) (Q99665 24-862, chain 2 of 2, other chains not shown): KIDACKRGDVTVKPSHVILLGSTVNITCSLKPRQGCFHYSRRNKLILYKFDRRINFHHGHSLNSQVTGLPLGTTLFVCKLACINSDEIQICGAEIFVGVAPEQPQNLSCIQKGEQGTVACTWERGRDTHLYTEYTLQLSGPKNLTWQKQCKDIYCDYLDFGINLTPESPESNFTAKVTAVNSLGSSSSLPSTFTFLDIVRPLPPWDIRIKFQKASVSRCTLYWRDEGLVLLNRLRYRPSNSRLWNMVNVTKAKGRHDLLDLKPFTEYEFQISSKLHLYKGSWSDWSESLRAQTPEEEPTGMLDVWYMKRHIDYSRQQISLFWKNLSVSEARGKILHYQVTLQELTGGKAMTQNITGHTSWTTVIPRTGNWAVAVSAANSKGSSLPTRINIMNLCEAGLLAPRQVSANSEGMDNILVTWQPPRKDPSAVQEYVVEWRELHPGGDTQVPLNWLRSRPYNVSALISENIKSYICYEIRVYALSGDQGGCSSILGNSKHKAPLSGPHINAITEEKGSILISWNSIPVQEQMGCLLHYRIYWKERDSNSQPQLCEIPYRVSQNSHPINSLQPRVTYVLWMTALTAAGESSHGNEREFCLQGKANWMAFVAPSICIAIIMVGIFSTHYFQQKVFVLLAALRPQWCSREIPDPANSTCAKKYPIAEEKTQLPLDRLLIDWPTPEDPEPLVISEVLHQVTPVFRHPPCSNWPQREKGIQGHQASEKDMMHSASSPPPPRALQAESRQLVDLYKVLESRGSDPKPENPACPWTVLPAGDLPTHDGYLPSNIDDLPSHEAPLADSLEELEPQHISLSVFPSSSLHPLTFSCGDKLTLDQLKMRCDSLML
Sequence of IL-12 receptor on mouse effector cells (mouse) (Q60837 20-738, chain 1 of 2): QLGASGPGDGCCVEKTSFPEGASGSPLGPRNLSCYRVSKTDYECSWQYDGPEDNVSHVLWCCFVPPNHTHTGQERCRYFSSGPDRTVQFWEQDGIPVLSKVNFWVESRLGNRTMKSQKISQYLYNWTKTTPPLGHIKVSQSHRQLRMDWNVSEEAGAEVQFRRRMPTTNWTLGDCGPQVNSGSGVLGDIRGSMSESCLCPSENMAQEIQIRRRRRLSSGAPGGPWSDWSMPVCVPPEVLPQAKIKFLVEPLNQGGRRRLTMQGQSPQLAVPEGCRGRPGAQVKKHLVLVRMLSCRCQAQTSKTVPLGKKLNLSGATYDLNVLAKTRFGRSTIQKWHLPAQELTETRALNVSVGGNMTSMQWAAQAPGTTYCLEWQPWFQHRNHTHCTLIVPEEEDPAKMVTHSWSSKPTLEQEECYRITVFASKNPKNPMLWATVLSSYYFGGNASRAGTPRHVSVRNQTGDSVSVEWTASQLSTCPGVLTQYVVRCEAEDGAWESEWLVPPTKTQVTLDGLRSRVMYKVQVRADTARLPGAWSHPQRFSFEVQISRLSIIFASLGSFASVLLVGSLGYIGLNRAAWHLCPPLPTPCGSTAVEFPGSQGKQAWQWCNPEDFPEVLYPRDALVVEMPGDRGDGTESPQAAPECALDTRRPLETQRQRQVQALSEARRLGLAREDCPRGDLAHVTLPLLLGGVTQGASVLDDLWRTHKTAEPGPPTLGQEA
Sequence of IL-12 receptor on mouse effector cells (mouse) (P97378 24-874, chain 2 of 2, further chain): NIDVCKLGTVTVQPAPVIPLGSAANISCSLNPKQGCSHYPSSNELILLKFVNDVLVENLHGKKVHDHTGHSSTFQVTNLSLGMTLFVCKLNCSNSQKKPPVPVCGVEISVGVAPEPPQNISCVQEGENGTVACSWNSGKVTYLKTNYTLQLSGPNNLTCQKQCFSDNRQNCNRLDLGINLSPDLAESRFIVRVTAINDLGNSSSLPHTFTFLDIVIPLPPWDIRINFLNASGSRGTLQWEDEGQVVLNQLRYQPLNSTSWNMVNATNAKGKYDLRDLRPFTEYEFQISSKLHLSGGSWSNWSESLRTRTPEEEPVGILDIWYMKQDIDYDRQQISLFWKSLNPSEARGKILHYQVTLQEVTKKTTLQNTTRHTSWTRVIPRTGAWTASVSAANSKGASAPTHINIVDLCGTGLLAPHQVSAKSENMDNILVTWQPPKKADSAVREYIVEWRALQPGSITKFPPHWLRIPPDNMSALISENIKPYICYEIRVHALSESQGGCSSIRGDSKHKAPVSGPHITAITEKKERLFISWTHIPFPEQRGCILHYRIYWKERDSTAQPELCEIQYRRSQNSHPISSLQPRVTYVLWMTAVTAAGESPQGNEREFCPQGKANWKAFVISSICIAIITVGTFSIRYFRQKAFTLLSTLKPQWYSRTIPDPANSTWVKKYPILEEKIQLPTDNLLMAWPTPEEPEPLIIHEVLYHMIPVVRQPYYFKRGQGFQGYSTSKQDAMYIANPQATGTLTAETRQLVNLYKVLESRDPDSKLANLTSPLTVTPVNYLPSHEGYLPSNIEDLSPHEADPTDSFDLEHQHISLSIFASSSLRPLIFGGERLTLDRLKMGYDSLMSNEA

In assay [1] (scale: fold less active than the mouse IL-12 standard), “Hu-KS-1/4-mouse p35 human p40 fusion protein (from UniProt P01857 1-330; P43431 23-215; P29460 23-328) (antibody)” came in with an induction of IFN-γ secretion from mouse effector cells pre-stimulated with Concanavalin A of 50. The same substance displayed an induction of IFN-γ secretion from PHA-activated PBMC in assay [2] (scale: fold less active than Hu-KS-IL-12 with human IL-12 chains) of 4.
“Hu-KS-IL-12 fusion protein with both human IL-12 chains (from UniProt P01857 1-330; P29459 23-219; P29460 23-328) (antibody)” returned an induction of IFN-γ secretion from PHA-activated PBMC (fold less active than the IL-12 standard) in assay [2] of 6.
In assay [3], “single-chain fusion protein with a mouse p35 subunit and a human p40 subunit (KS-1/4 scFv-mouse p35/human p40) (from UniProt P43431 23-215; P29460 23-328)” yielded an intensity of binding against the whole KS-1/4 antibody (fold lower than whole KS-1/4 antibody) of 3. This substance had an induction of IFN-γ secretion from mouse cells (fold less than the mouse IL-12 control) in assay [1] of 50.
“single-chain fusion protein with human p35 and p40 subunits (KS-1/4 scFv-human IL-12) (from UniProt P29459 23-219; P29460 23-328)”: the intensity of binding against the whole KS-1/4 antibody (fold lower than whole KS-1/4 antibody) in assay [3] worked out at 3.

The values are drawn from patent US20020193570A1.
